Reference: article PMC11856660 (PLOS Pathogens, 2025)

Target: the molecule itself
Assay: […] (25 mM HEPES pH 8, 300 mM NaCl, 10% glycerol, 1 mM TCEP); […]; 20 °C; […]

B1: HCoV-229E nsp15 protein, wild type (recombinant, hexameric) (enzyme)
chain: GLENIAFNVVNKGSFVGADGELPVAISGDKVFVRDGNTDNLVFVNKTSLPTNIAFELFAKRKVGLTPPLSILKNLGVVATYKFVLWDYEAERPLTSFTKSVCGYTDFAEDVCTCYDNSIQGSYERFTLSTNAVLFSATAVKTGGKSLPAIKLNFGMLNGNAIATVKSEDGNIKNINWFVYVRKDGKPVDHYDGFYTQGRNLQDFLPRSTMEEDFLNMDIGVFIQKYGLEDFNFEHVVYGDVSKTTLGGLHLLISQVRLSKMGILKAEEFVAASDITLKCCTVTYLNDPSSKTVCTYMDLLLDDFVSVLKSLDLTVVSKVHEVIIDNKPWRWMLWCKDNAVATFYPQLQ
notes: source: T7 Express E. coli, purified (Ni-NTA, SEC)
- stoichiometry N: 6
